Reference: paper PMC5402353 (Journal of molecular biology, 2017)
Like-named read-outs stand apart in the source and are kept apart here.

Experiments:
hexYme1p (S. cerevisiae) [1] = target: T1, hexYme1p (S. cerevisiae) (UniProt P32795)
T1 sequence: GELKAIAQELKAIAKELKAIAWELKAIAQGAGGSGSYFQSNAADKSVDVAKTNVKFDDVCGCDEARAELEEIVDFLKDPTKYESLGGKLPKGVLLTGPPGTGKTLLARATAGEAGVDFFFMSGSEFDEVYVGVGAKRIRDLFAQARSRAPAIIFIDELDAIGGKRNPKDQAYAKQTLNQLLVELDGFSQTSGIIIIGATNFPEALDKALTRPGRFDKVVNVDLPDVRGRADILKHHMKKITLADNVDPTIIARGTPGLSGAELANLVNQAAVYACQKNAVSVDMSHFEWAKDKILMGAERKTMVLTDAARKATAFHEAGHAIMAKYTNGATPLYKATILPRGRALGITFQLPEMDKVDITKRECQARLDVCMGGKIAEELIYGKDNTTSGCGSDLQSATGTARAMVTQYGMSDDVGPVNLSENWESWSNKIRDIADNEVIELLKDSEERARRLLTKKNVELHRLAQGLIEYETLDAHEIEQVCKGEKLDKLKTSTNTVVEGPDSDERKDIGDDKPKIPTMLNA

hexYme1p (S. cerevisiae) [2] = target: T1, hexYme1p (S. cerevisiae); remark: listed apart in the source
SEC = target: the molecule itself; assay: SEC

## T10-λcI^N (from UniProt P87108 1-15)
hexYme1p (S. cerevisiae) [1]
  initial rate of degradation of 20 μM substrate by hexYme1p (min^−1 enz6^−1): 0.7

## T13-λcI^N (from UniProt P53299 1-13)
hexYme1p (S. cerevisiae) [1]
  initial rate of degradation of 20 μM substrate by hexYme1p (min^−1 enz6^−1): 0.22

## T12-λcI^N (from UniProt P32830 1-15)
hexYme1p (S. cerevisiae) [1]
  initial rate of degradation of 20 μM substrate by hexYme1p (min^−1 enz6^−1): 0.33

## T9-λcI^N (from UniProt O74700 1-8)
hexYme1p (S. cerevisiae) [1]
  initial rate of degradation of 20 μM substrate by hexYme1p (min^−1 enz6^−1): 0.03

B1: Tim13^3–7A (natural protein)
chain: MGAAAAAGGGAPSQQKEAATTAKTTPNPIAKELKNQIAQELAVANATELVNKISENCFEKCLTSPYATRNDACIDQCLAKYMRSWNVISKAYISRIQNASASGEI
hexYme1p (S. cerevisiae) [1]
  initial rate of degradation by hexYme1p, without DTT (min^−1 enz6^−1): 0.05

B2: Tim9^D2F (natural protein)
chain: MFALNSKEQQEFQKVVEQKQMKDFMRLYSNLVERCFTDCVNDFTTSKLTNKEQTCIMKCSEKFLKHSERVGQRFQEQNAALGQGLGR
hexYme1p (S. cerevisiae) [2]
  initial rate of degradation by hexYme1p, without DTT (min^−1 enz6^−1): 0.16

B3: Tim10^2–6A (natural protein)
chain: MAAAAAGGGQPQLSSQQKIQAAEAELDLVTDMFNKLVNNCYKKCINTSYSEGELNKNESSCLDRCVAKYFETNVQVGENMQKMGQSFNAAGKF
hexYme1p (S. cerevisiae) [2]
  initial rate of degradation by hexYme1p (min^−1 enz6^−1): 0.05

B4: Tim10^F3A/F6A (natural protein)
chain: MSALGAGGGQPQLSSQQKIQAAEAELDLVTDMFNKLVNNCYKKCINTSYSEGELNKNESSCLDRCVAKYFETNVQVGENMQKMGQSFNAAGKF
hexYme1p (S. cerevisiae) [2]
  initial rate of degradation by hexYme1p (min^−1 enz6^−1): 0.11

B5: Tim10^F-alone (natural protein)
chain: MAFAAFAGGQPQLSSQQKIQAAEAELDLVTDMFNKLVNNCYKKCINTSYSEGELNKNESSCLDRCVAKYFETNVQVGENMQKMGQSFNAAGKF
hexYme1p (S. cerevisiae) [2]
  initial rate of degradation by hexYme1p (min^−1 enz6^−1): 0.43

B6: hexYme1p (enzyme, S. cerevisiae)
chain: GELKAIAQELKAIAKELKAIAWELKAIAQGAGGSGSYFQSNAADKSVDVAKTNVKFDDVCGCDEARAELEEIVDFLKDPTKYESLGGKLPKGVLLTGPPGTGKTLLARATAGEAGVDFFFMSGSEFDEVYVGVGAKRIRDLFAQARSRAPAIIFIDELDAIGGKRNPKDQAYAKQTLNQLLVELDGFSQTSGIIIIGATNFPEALDKALTRPGRFDKVVNVDLPDVRGRADILKHHMKKITLADNVDPTIIARGTPGLSGAELANLVNQAAVYACQKNAVSVDMSHFEWAKDKILMGAERKTMVLTDAARKATAFHEAGHAIMAKYTNGATPLYKATILPRGRALGITFQLPEMDKVDITKRECQARLDVCMGGKIAEELIYGKDNTTSGCGSDLQSATGTARAMVTQYGMSDDVGPVNLSENWESWSNKIRDIADNEVIELLKDSEERARRLLTKKNVELHRLAQGLIEYETLDAHEIEQVCKGEKLDKLKTSTNTVVEGPDSDERKDIGDDKPKIPTMLNA
SEC
  stoichiometry N: 6
